# From patent US20190135928A1 (Bristol-Myers Squibb, published 2019)
# T1: human TL1A (in-house) (human, UniProt O95150 57-251, limits assumed)
# T1 sequence: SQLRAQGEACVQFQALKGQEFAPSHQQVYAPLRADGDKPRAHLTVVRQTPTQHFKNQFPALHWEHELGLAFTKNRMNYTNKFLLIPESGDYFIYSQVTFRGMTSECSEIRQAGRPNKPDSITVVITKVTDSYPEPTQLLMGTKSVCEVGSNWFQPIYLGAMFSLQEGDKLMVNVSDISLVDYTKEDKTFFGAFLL
# Experiments:
# Assay in all cases: cell-based or functional assay
# [1] = target: T1, human TL1A (in-house)
# [2] = target: T1, human TL1A (in-house); remark: listed apart in the source
# [3] = target: T1, human TL1A (in-house); remark: listed apart in the source
# [4] = target: T1, human TL1A (in-house); remark: listed apart in the source
binder,measurement,setting,value
"TL1A antibody 10A4.F7.2E8 huIgG4 (antibody, V domains shown) VH: QLQLQESGPGLVKPSETLSLTCTVSGGSISSRSYYWGWIRQPPGKGLEWIGSIYYNGRTYYNPSLKSRVTISVDTSKNQFSLKLSSVTAADTAVYYCAREDYGDYGAFDIWGQGTMVTVSS VL: AIQLTQSPSSLSASVGDRVTITCRASQGISSALAWYQQKPGKAPKLLIYDASSLESGVPSRFSGSGSGTDFTLTISSLQPEDFATYYCQQFNSYPLTFGGGTKVEIKR","EC50, TL1A + IL-12 + IL-18 driven IFNg (Hu PBMCs) (2.45 mg/ml), Donor B, ELN ref 97305-061",[1],0.152 nM
same,"EC50, TL1A + IL-12 + IL-18 driven IFNg (Hu PBMCs) (2.45 mg/ml), Donor B, ELN ref 99932-005481",[1],0.196 nM
same,"EC50, TL1A + IL-12 + IL-18 driven IFNg (Hu Tcells) (2.45 mg/ml), Donor A, ELN ref 97305-062",[2],0.18 nM
same,"EC50, TL1A + IL-12 + IL-18 driven IFNg (Hu Tcells) (2.45 mg/ml), Donor A, ELN ref 97305-064",[2],0.235 nM
same,"EC50, TL1A + IL-12 + IL-18 driven IFNg (Hu Tcells) (2.45 mg/ml), Donor A, ELN ref 97305-066",[2],0.331 nM
same,"EC50, TL1A + IL-12 + IL-18 driven IFNg (Hu Tcells) (2.45 mg/ml), Donor A, ELN ref 97305-077",[2],0.241 nM
same,"EC50, TL1A + IL-12 + IL-18 driven IFNg (Hu Tcells) (2.45 mg/ml), Donor A, ELN ref 97305-082",[2],0.034 nM
same,"EC50, TL1A + IL-12 + IL-18 driven IFNg (Hu Tcells) (2.45 mg/ml), Donor A, ELN ref 99932-003797",[2],0.355 nM
same,"EC50, TL1A + IL-12 + IL-18 driven IFNg (Hu Tcells) (2.45 mg/ml), Donor A, ELN ref 99932-004083",[2],0.393 nM
same,"EC50, TL1A + IL-12 + IL-18 driven IFNg (Hu Tcells) (2.45 mg/ml), Donor A, ELN ref 99932-004084",[2],0.367 nM
same,"EC50, TL1A + IL-12 + IL-18 driven IFNg (Hu Tcells) (2.45 mg/ml), Donor A, ELN ref 99932-004439",[2],0.185 nM
same,"EC50, TL1A + IL-12 + IL-18 driven IFNg (Hu Tcells) (2.45 mg/ml), Donor A, ELN ref 99932-004774",[2],0.22 nM
same,"EC50, TL1A + IL-12 + IL-18 driven IFNg (Hu Tcells) (2.45 mg/ml), Donor A, ELN ref 99932-004955",[2],0.172 nM
same,"EC50, TL1A + IL-12 + IL-18 driven IFNg (Hu Tcells) (2.45 mg/ml), Donor B, ELN ref 97305-062",[2],0.259 nM
same,"EC50, TL1A + IL-12 + IL-18 driven IFNg (Hu Tcells) (2.45 mg/ml), Donor B, ELN ref 97305-064",[2],0.199 nM
same,"EC50, TL1A + IL-12 + IL-18 driven IFNg (Hu Tcells) (2.45 mg/ml), Donor B, ELN ref 97305-066",[2],0.347 nM
same,"EC50, TL1A + IL-12 + IL-18 driven IFNg (Hu Tcells) (2.45 mg/ml), Donor B, ELN ref 97305-077",[2],0.258 nM
same,"EC50, TL1A + IL-12 + IL-18 driven IFNg (Hu Tcells) (2.45 mg/ml), Donor B, ELN ref 97305-082",[2],0.039 nM
same,"EC50, TL1A + IL-12 + IL-18 driven IFNg (Hu Tcells) (2.45 mg/ml), Donor B, ELN ref 99932-003797",[2],0.312 nM
same,"EC50, TL1A + IL-12 + IL-18 driven IFNg (Hu Tcells) (2.45 mg/ml), Donor B, ELN ref 99932-004083",[2],0.311 nM
same,"EC50, TL1A + IL-12 + IL-18 driven IFNg (Hu Tcells) (2.45 mg/ml), Donor B, ELN ref 99932-004084",[2],0.303 nM
same,"EC50, TL1A + IL-12 + IL-18 driven IFNg (Hu Tcells) (2.45 mg/ml), Donor B, ELN ref 99932-004439",[2],0.194 nM
same,"EC50, TL1A + IL-12 + IL-18 driven IFNg (Hu Tcells) (2.45 mg/ml), Donor B, ELN ref 99932-004774",[2],0.319 nM
same,"EC50, TL1A + IL-12 + IL-18 driven IFNg (Hu Tcells) (2.45 mg/ml), Donor B, ELN ref 99932-004955",[2],0.211 nM
same,"EC50, TL1A + IL-12 + IL-18 driven IFNg (Hu Tcells) (5.9 mg/ml), Donor A, ELN ref 99932-004774",[3],0.171 nM
same,"EC50, TL1A + IL-12 + IL-18 driven IFNg (Hu Tcells) (5.9 mg/ml), Donor A, ELN ref 99932-004955",[3],0.273 nM
same,"EC50, TL1A + IL-12 + IL-18 driven IFNg (Hu Tcells) (5.9 mg/ml), Donor B, ELN ref 99932-004774",[3],0.243 nM
same,"EC50, TL1A + IL-12 + IL-18 driven IFNg (Hu Tcells) (5.9 mg/ml), Donor B, ELN ref 99932-004955",[3],0.182 nM
same,"EC50, TL1A + IL-12 + IL-18 driven IFNg (Hu Tcells) (4.8 mg/ml), Donor A, ELN ref 97305-082",[4],0.162 nM
same,"EC50, TL1A + IL-12 + IL-18 driven IFNg (Hu Tcells) (4.8 mg/ml), Donor A, ELN ref 99932-003797",[4],0.303 nM
same,"EC50, TL1A + IL-12 + IL-18 driven IFNg (Hu Tcells) (4.8 mg/ml), Donor A, ELN ref 99932-004083",[4],0.27 nM
same,"EC50, TL1A + IL-12 + IL-18 driven IFNg (Hu Tcells) (4.8 mg/ml), Donor A, ELN ref 99932-004084",[4],0.316 nM
same,"EC50, TL1A + IL-12 + IL-18 driven IFNg (Hu Tcells) (4.8 mg/ml), Donor A, ELN ref 99932-004439",[4],0.262 nM
same,"EC50, TL1A + IL-12 + IL-18 driven IFNg (Hu Tcells) (4.8 mg/ml), Donor A, ELN ref 99932-004774",[4],0.177 nM
same,"EC50, TL1A + IL-12 + IL-18 driven IFNg (Hu Tcells) (4.8 mg/ml), Donor A, ELN ref 99932-004955",[4],0.193 nM
same,"EC50, TL1A + IL-12 + IL-18 driven IFNg (Hu Tcells) (4.8 mg/ml), Donor A, ELN ref 99932-005751",[4],0.216 nM
same,"EC50, TL1A + IL-12 + IL-18 driven IFNg (Hu Tcells) (4.8 mg/ml), Donor B, ELN ref 97305-082",[4],0.143 nM
same,"EC50, TL1A + IL-12 + IL-18 driven IFNg (Hu Tcells) (4.8 mg/ml), Donor B, ELN ref 99932-003797",[4],0.361 nM
same,"EC50, TL1A + IL-12 + IL-18 driven IFNg (Hu Tcells) (4.8 mg/ml), Donor B, ELN ref 99932-004084",[4],0.345 nM
same,"EC50, TL1A + IL-12 + IL-18 driven IFNg (Hu Tcells) (4.8 mg/ml), Donor B, ELN ref 99932-004439",[4],0.157 nM
same,"EC50, TL1A + IL-12 + IL-18 driven IFNg (Hu Tcells) (4.8 mg/ml), Donor B, ELN ref 99932-004774",[4],0.267 nM
same,"EC50, TL1A + IL-12 + IL-18 driven IFNg (Hu Tcells) (4.8 mg/ml), Donor B, ELN ref 99932-004955",[4],0.287 nM
same,"EC50, TL1A + IL-12 + IL-18 driven IFNg (Hu Tcells) (4.8 mg/ml), Donor B, ELN ref 99932-005751",[4],0.138 nM
